One assay deals with T1, FBXO44^FBA (Homo sapiens, UniProt Q9H4M3).
T1 construct: we expressed and purified only this domain for all in vitro studies; 6xHis (N, cleaved yes); MBP (N, cleaved yes); made in house; host or cells: Escherichia coli Rosetta BL21 (λDE3)
T1 sequence (Q9H4M3 71-252 limits assumed): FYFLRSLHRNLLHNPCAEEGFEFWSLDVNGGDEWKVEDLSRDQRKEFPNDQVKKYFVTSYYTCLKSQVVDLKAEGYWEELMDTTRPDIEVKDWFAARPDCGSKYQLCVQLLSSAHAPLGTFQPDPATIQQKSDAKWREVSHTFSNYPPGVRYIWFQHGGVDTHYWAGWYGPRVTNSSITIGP
As to the kind of experiment: Peptide microarray (PEPperPRINT), FLAG-FBXO44^FBA binding. The settings on record: Table S1; RGS2^5–16 single-residue substitution; 2 μg/ml FBXO44^FBA overnight at 4 °C, PBS 0.005% Tween pH 7.4, anti-FLAG DyLight800 fluorescence; three independent experiments with three technical replicates each. The source says:
To do so, we utilized a custom peptide microarray (PEPperPRINT GmbH). The design of this array was twofold: (1) substitution at each position with every other natural eukaryotic amino acid; (2) truncation of the peptide from the C terminus. We assessed the binding of FLAG-FBXO44^FBA to the array utilizing fluorescence immunoreactivity corresponding to the amount of FLAG-FBXO44^FBA bound. […] Substitutions at Asp^12 were not only tolerated but also seemed to improve binding in every case (Fig. 3B). This, combined with the fact that substituting any residue in His^11–Met^16 with Arg, and in most cases with Lys, improved FBXO44^FBA binding, indicating the presence of negative charges at the binding interface.
Figure 2 Systematic mutation of the RGS2 degron alters FBXO44^FBA binding. A custom microarray (PEPperPRINT) was designed where each position of the RGS2^5–16 peptide was substituted for each natural amino acid. We also included truncated peptides on the array. This was incubated with purified FBXO44^FBA and probed with α-FLAG. A, a representative scan of a peptide microarray (top) and a truncated peptide (bottom). B, heatmap of mean fluorescence of quantified microarray scans. The scale represents the mean fluorescence in percentage points across all replicates, normalized to the signal obtained with the original residue at each position. C, heatmap of standard deviation of quantified microarray scans. The scale represents the standard deviation in percentage points across all replicates. […] Residues are color-coded based on properties: blue, positive charge; red, negative charge; orange, uncharged polar; green, hydrophobic; yellow, Cys (C); bright green, Pro (P); and black, Gly (G). […] Results of three independent experiments with three technical replicates each. For a statistical significance summary, see Table S1. FBXO44, F-box only protein 44; RGS2, regulator of G protein signaling 2.
Figure 3 Effects of RGS2^5–16 peptide residue changes on FBXO44^FBA binding. Data are presented as % FLAG immunoreactivity, as compared with the parent peptide residue. […] The original residue is marked in each graph with a vertical dotted line. Boxes extend from the 25th to 75th percentile with a line marking the median. Whiskers extend to the minimum and maximum. Results of three independent experiments with three technical replicates each. Data were analyzed by two-way ANOVA, with Tukey's post hoc test for pairwise comparison (simple effect within columns). Statistical significance is summarized in Table S1 and color-coded according to the legend. FBXO44, F-box only protein 44; RGS2, regulator of G protein signaling 2.
The microarray slide was seated into the incubation tray according to PEPperPRINT's instructions. The array well was then incubated in washing buffer (PBS) with 0.005% Tween (Sigma; P1379, pH 7.4) at room temperature for 15 min on an orbital shaker. Washing buffer was aspirated, and the array was then incubated with Rockland blocking buffer at room temperature for 30 min on an orbital shaker. Blocking buffer was then aspirated, and the array was incubated in staining buffer (washing buffer with 10% Rockland blocking buffer) at room temperature for 15 min on an orbital shaker. Staining buffer was aspirated, and purified FBXO44 FBA domain diluted to 2 μg/ml in staining buffer was added. The array was then placed on an orbital shaker overnight at 4 °C. The FBA domain solution was removed, and an array was washed three times with washing buffer. After the third array was incubated in staining buffer for 15 min at 4 °C on an orbital shaker. The array was then incubated with antibody dilution (anti-FLAG DyLight800 and anti-HA DyLight680, both diluted 1:2000 in staining buffer) for 45 min at 4° C on an orbital shaker. The array was then washed three times with washing buffer. […]
Regarding “P15R: array RGS2^5–16 peptide, P15 substituted by R (MFLAVQHDCRRM)”, the “Mean % difference from parent peptide (FLAG immunoreactivity)” value (from here on “Mean % difference from parent peptide”) was found to be 158%.
“P15A: array RGS2^5–16 peptide, P15 substituted by A”: the “Mean % difference from parent peptide” value is reported as -27.06%.
Still for that read-out and setting: the figure for “A8R: array RGS2^5–16 peptide, A8 substituted by R (MFLRVQHDCRPM; UniProt P41220 5-16, looked up, variant A8R)” is 27.84%; for “D12F: array RGS2^5–16 peptide, D12 substituted by F (MFLAVQHFCRPM; UniProt P41220 5-16, looked up, variant D12F)” it is 34.22%.
On the same count and under the same terms, the figure for “D12H: array RGS2^5–16 peptide, D12 substituted by H (MFLAVQHHCRPM; UniProt P41220 5-16, looked up, variant D12H)” is 37.64%; for “P15D: array RGS2^5–16 peptide, P15 substituted by D (MFLAVQHDCRDM; UniProt P41220 5-16, looked up, variant P15D)” it is 31.74%; for “C13E: array RGS2^5–16 peptide, C13 substituted by E (MFLAVQHDERPM; UniProt P41220 5-16, looked up, variant C13E)” it is -87.12%.
As to “D12K: array RGS2^5–16 peptide, D12 substituted by K (MFLAVQHKCRPM; UniProt P41220 5-16, looked up, variant D12K)”, the “Mean % difference from parent peptide” value was determined as 124.2%.
Still for that read-out and setting: next, “C13M: array RGS2^5–16 peptide, C13 substituted by M (MFLAVQHDMRPM; UniProt P41220 5-16, looked up, variant C13M)”: -88.01%; “P15G: array RGS2^5–16 peptide, P15 substituted by G”: -30.63%.
The same measure, in the same setting: the figure for “C13Q: array RGS2^5–16 peptide, C13 substituted by Q (MFLAVQHDQRPM; UniProt P41220 5-16, looked up, variant C13Q)” is -77.02%; for “C13Y: array RGS2^5–16 peptide, C13 substituted by Y (MFLAVQHDYRPM; UniProt P41220 5-16, looked up, variant C13Y)” it is -42.98%; for “D12L: array RGS2^5–16 peptide, D12 substituted by L (MFLAVQHLCRPM; UniProt P41220 5-16, looked up, variant D12L)” it is 31.38%.
The same measure, in the same setting: next, “D12W: array RGS2^5–16 peptide, D12 substituted by W (MFLAVQHWCRPM; UniProt P41220 5-16, looked up, variant D12W)”: 48.95%.
Take “C13H: array RGS2^5–16 peptide, C13 substituted by H (MFLAVQHDHRPM; UniProt P41220 5-16, looked up, variant C13H)”: the “Mean % difference from parent peptide” value is -83.62%.
Same read-out and setting: the figure for “D12R: array RGS2^5–16 peptide, D12 substituted by R (MFLAVQHRCRPM)” is 184.9%; for “C13F: array RGS2^5–16 peptide, C13 substituted by F (MFLAVQHDFRPM; UniProt P41220 5-16, looked up, variant C13F)” it is -82.91%.
As for “D12P: array RGS2^5–16 peptide, D12 substituted by P (MFLAVQHPCRPM; UniProt P41220 5-16, looked up, variant D12P)”, the “Mean % difference from parent peptide” value is 66.54%.
Still for that read-out and setting: the figure for “C13K: array RGS2^5–16 peptide, C13 substituted by K (MFLAVQHDKRPM; UniProt P41220 5-16, looked up, variant C13K)” is -53.92%; for “P15K: array RGS2^5–16 peptide, P15 substituted by K (MFLAVQHDCRKM; UniProt P41220 5-16, looked up, variant P15K)” it is 52.32%.
Same read-out and setting: next, “C13T: array RGS2^5–16 peptide, C13 substituted by T”: -86.63%.

Staying with this assay, now noted: versus parent RGS2^5–16 peptide; 2 μg/ml FBXO44^FBA overnight at 4 °C; fluorescence.
Consider “P15R: array RGS2^5–16 peptide, P15 substituted by R (MFLAVQHDCRRM)”, for which the “FBXO44^FBA binding in peptide microarray (in words)” value was “enhanced FBXO44^FBA binding”.
On the same count and under the same terms, next, “P15G: array RGS2^5–16 peptide, P15 substituted by G”: “decreased binding”.
For “D12R: array RGS2^5–16 peptide, D12 substituted by R (MFLAVQHRCRPM)”, the “FBXO44^FBA binding in peptide microarray (in words)” value is given as “enhanced FBXO44^FBA binding”.

In the next assay the test system is HEK-293T cells. As to the kind of experiment: RGS2 protein levels, baseline and with proteasome inhibitor MG-132. The class given is cell-based, human. To be noted: MG-132 10 μM, 4 h; Fig. S4; five or six independent experiments. The source says:
Representative Western blot and quantification of three independent experiments. […] Representative Western blot and quantification of three independent experiments. Representative Western blot (D), quantification of knockdown efficiency (E), and effects on RGS protein levels (F) when FBXO44 is knocked down using siRNA. […] Result of three independent experiments. ∗p < 0.05; ∗∗p < 0.01; ∗∗∗p < 0.001 using two-way ANOVA followed by Tukey's post hoc test for pairwise comparisons (C, E, and F). FBXO44, F-box only protein 44; HEK-293T, human embryonic kidney-293T cell line; RGS2, regulator of G protein signaling 2.
Cells were harvested on ice in lysis buffer containing protease inhibitors (50 mM Tris–HCl [pH 7.4], 5 mM NaCl, 0.5 mM EDTA, 1% Triton X-100, 10% cOmplete Protease Inhibitor Cocktail EDTA-free). Lysates were bath sonicated for 10 min at 4 °C, centrifuged at 6000g for 3 min, and the supernatant was used for SDS-PAGE and immunoblotting. Total protein concentration was determined using the Pierce BCA Protein Assay Kit. Samples were diluted to 1 μg/μl in protein sample loading buffer (Li-Cor Biosciences).
Equal amounts of protein in each lane were resolved on a 12% SDS-PAGE gel for 1 h at 160 V. Samples were transferred to an Immobilon-FL PVDF membrane (Millipore) and subjected to Western immunoblot analysis using Li-Cor blocking buffer for both blocking and antibody diluents. Membranes were blocked for 1 h, then incubated for 2 h in primary antibodies as described under “Antibodies,” and finally incubated for 1 h with IRDye secondary antibodies directed at the species of the primary antibody. Following each antibody incubation, membranes were washed four times in PBS with 0.1% Tween-20. Membranes were imaged using an Azure600 imaging system (Azure Biosystems).
Figure S4. Effect of RGS2 mutations on protein stability. Representative western blot and quantification of five or six independent experiments (varies by mutation). The proteasome inhibitor MG-132 (10 μM, 4 h) […]
P15R were predicted to destabilize RGS2, due to increased binding to FBXO44 in the peptide microarray. […]
significant. *P<0.05; ***P<0.001 using two-way ANOVA followed by Tukey’s post hoc test for pairwise
As for “P15R: array RGS2^5–16 peptide, P15 substituted by R (MFLAVQHDCRRM)”, the “change of RGS2 protein levels with MG-132 (Fig. S4)” value is recorded as “none of these mutations resulted in significant changes in basal expression or response to MG-132”.
Same read-out and setting: the entry for “P15G: array RGS2^5–16 peptide, P15 substituted by G” is “none of these mutations resulted in significant changes in basal expression or response to MG-132”.

The same assay, now with this note: no MG-132; Fig. S4; five or six independent experiments.
As to “P15R: array RGS2^5–16 peptide, P15 substituted by R (MFLAVQHDCRRM)”, the “basal RGS2 protein expression versus RGS2^WT (Fig. S4)” value is “none of these mutations resulted in significant changes in basal expression”.
“P15G: array RGS2^5–16 peptide, P15 substituted by G”: the “basal RGS2 protein expression versus RGS2^WT (Fig. S4)” value is listed as “none of these mutations resulted in significant changes in basal expression”.
The same measure, in the same setting: the entry for “D12R: array RGS2^5–16 peptide, D12 substituted by R (MFLAVQHRCRPM)” is “trend towards decreased expression”.

Source of the values: PMC12554172, “Systematic analysis of the RGS2 degron reveals characteristics of substrate recognition by the F-box protein FBXO44” (The Journal of Biological Chemistry, 2025).
